Laboratory results reported in patent US20260043020A1, “BINDING MEMBERS WITH ALTERED DIVERSITY SCAFFOLD DOMAINS” (priority 2016, published 2026).

Target: rat TFR (rat) (UniProt Q99376)
Experiment: cell-based or functional assay

% transcytosis after 6 h (in vitro rat BBB model): 0.2%
Substance: OX26-Fab
